For test [1], the system named is HT-1080 cells. In words: Internalization of offered recombinant proteins in HT-1080 cells, immunoblotting of cytosolic and nuclear fractions. Format: cell-based, human. Conditions: 1 μM; for Internalization to cytosol and nucleus of HT-1080 cells: 37° C. The protocol: HT-1080 cells were grown in six-well plates under standard conditions. At confluence, the cells were treated with fresh medium containing either wild-type TFPI-2, TFPI-2^1-188, R24Q KD1, R24K KD1, or R24K KD1-CT as previously described (Kempaiah and Kisiel, Apoptosis, 2008;13:702-715). Briefly, duplicate wells were treated with purified proteins (1 μM final concentration) and incubated at either 37° C. or 4° C. for different time periods. Two wells were also treated with phosphate-buffered saline (PBS) at each temperature to serve as a control. At selected time points, the media was removed and the cells were rinsed once with PBS. The cells were then washed with 1 M NaCl/PBS for 30 minutes with gentle shaking to dissociate cell surface-bound proteins (Iino et al., Arterioscler. Thromb. Vasc. Biol., 1998;18:40-46). Finally, the cells were rinsed once with PBS, trypsinized and harvested for the preparation of cell lysates and cell fractions.
To prepare total cell lysates, 1-3×10^6 cells were lysed by sonication in 500 μl of lysis buffer containing of 125 mM Tris-HCl (pH 6.8), 2% SDS, 10% glycerol, 50 mM sodium phosphate, 1 mM phenylmethanesulphonylfluoride (PMSF) and protease inhibitor cocktail. The lysate was kept on ice for about 10 minutes, centrifuged for 15 minutes at 10,000×g at 4° C., and the supernatant recovered. To prepare nuclear and cytosolic fractions, approximately 2×10^6 cells were harvested and washed twice with cold PBS by centrifugation at 600×g in a Beckman J-6M/E centrifuge for seven minutes at 4° C. Five volumes of ice cold cytosolic buffer (10 mM Hepes pH 7.4, 0.33 M sucrose, 1 mM MgCl2, 0.1% Triton X-100 and protease inhibitor cocktail) was added to the cells and incubated on ice for 15 minutes. The cytosolic fraction was collected by centrifugation at 900×g for five minutes at 4° C. The resulting undissolved pellet was washed twice with cytosolic buffer followed by centrifugation at 900×g for five minutes at 4° C. Finally, the resulting pellet was resuspended in five volumes of ice cold buffer containing 0.45 M NaCl in 10 mM Hepes (pH 7.4) and protease inhibitor cocktail. The suspension was incubated on ice for an additional 15 minutes to dissolve the nucleus, and subsequently centrifuged at 18,000×g for five minutes at 4° C. The resulting supernatant was collected as the nuclear extract. All samples were boiled for three minutes in the presence of 5% SDS and stored at −20° C. until use.
The cell lysate, cytosol and nuclear fractions were subjected to SDS-PAGE using 4-20% polyacrylamide gradient gels. […] The membranes were then probed with specific antibodies dissolved in fresh blocking buffer. Immunoreactive proteins were identified using HRP-conjugated secondary antibodies and a chemiluminescent reagent system essentially as described (Kempaiah et al., Mol. Cancer, 2007;6:20). The integrity of the cytosolic and nuclear fractions was verified using anti-α-tubulin and anti-histone-H1 antibodies, respectively (Guo et al., Am. J Physiol. Cell Physiol., 2007;292:2095-2102).
The relative intensity of the Western blot bands were quantified using QUANTISCAN software (Biosoft, Cambridge, U.K.). The intensities are reported in arbitrary units (A.U.) obtained by subtracting the background value from the corresponding band's mean value.

The test system of test [2] is HT-1080 cells. In words: Localization of protein in stably-transfected overexpressing HT-1080 cells, immunoblotting and immunocytochemistry. The test is classed as cell-based, human. Conditions: HT-1080 cells stably transfected with cDNA (FIG. 3, FIG. 4C, 4D). As to the method:
HT-1080 and HEK 293 cell lines were stably transfected to overexpress either wild-type human TFPI-2 or a mutant TFPI-2 construct lacking the carboxy-terminal tail (TFPI-2^1-188), and were maintained as described (Chand et al., Blood, 2004;103:1069-1077, Du et al., Arch. Biochem. Biophys:, 2003;417:96-104). An anti-human TFPI-2 murine monoclonal antibody designated as SK-9 was prepared as described (Du et al., Arch. Biochem. Biophys., 2003;417:96-104) and coupled to Affi-Gel 10 according to the manufacturer's recommendation. Recombinant human TFPI-2 was purified from HEK 293 serum-free conditioned media by a two-step chromatography procedure involving heparin-agarose (Sprecher et al., Proc. Natl. Acad. Sci. USA., 1994;91:3353-3357) and SK-9-AffiGel 10 affinity chromatography. In the latter procedure, heparin-agarose purified TFPI-2 was dialyzed against 50 mM Tris-HCl (pH 7.5) and applied to the SK-9-AffiGel 10 column equilibrated at room temperature with this buffer. After a wash step with 50 mM Tris-HCl (pH 7.5)/0.5 M NaCl, TFPI-2 was eluted with 0.1 M glycine (pH 2.5)/0.5 M NaCl into one-tenth volume of 1 M Tris-HCl (pH 8.8) to immediately neutralize the pH 2.5 glycine. […]
A general note: A western blot detects proteins with antibodies after separation by electrophoresis.

In test [3] the test system is HT-1080 cells. In words: Confocal microscopy of Alexa Fluor 488-conjugated TFPI-2 internalization in HT-1080 cells. The following applies: 50 μg/ml. The test is classed as cell-based, human. The protocol:
The internalization of recombinant TFPI-2 in HT-1080 cells was assessed by confocal microscopy using a Zeiss LSM510-META microscope and Alexa Fluor 488-conjugated TFPI-2. Approximately 0.5 mg of recombinant TFPI-2 protein was labeled with Alexa Fluor 488 dye following the manufacturer's instructions. Alexa Fluor-conjugated protein (50 μg/ml) was added to two sets of HT-1080 cells that were grown to confluence in two-chamber culture slides and incubated either at 37° C. or 4° C. for different time periods. Cells were then washed twice with cold PBS and fixed with 4% paraformaldehyde solution for 15 minutes. The slides were further rinsed twice with cold PBS, treated with a drop of mounting medium containing 4′,6-diamidino-2-phenylindole (DAPI), and covered with a coverslip for confocal microscopy.

Test [4] concerns human tumor cell lines. Conditions: cited from earlier work.
Where [5] appears, read: five minutes, immunoblot (FIG. 4B).

“Also recorded” adds a separate entry of the source.

B1: R24K KD1-CT: Chimera of first Kunitz-type domain (amino acids 1-73, R24K) and carboxy-terminal tail (amino acids 187-213) of TFPI-2, SEQ ID NO:2 (protein)
chain: DAAQEPTGNNAEICLLPLDYGPCRALLLRYYYDRYTQSCRQFLYGGCEGNANNFYTWEACDDACWRIEKVPKVEFAKALKKKKKMPKLRFASRIRKIRKKQF
modifications: chimera of the first Kunitz-type domain (with the R24K mutation) and the carboxy-terminal tail
With B1, the “Internalization to cytosol and nucleus of HT-1080 cells” value (from here on “Internalization to cytosol and nucleus”) was “is internalized to both the cytosol and nuclear fractions; also recorded: rapidly internalized and translocated to the nucleus” in test [1] (setting [5]); “internalized and translocated to the nucleus within minutes” in test [1] (five minutes, immunoblot (FIG. 4B), listed as R24KD 1-CT).

B2: TFPI-2^1-188: TFPI-2 construct lacking the carboxy-terminal tail (amino acids 189-213 of SEQ ID NO:1) (protein, listed as Homo sapiens)
chain: DAAQEPTGNNAEICLLPLDYGPCRALLLRYYYDRYTQSCRQFLYGGCEGNANNFYTWEACDDACWRIEKVPKVCRLQVSVDDQCEGSTEKYFFNLSSMTCEKFFSGGCHRNRIENRFPDEATCMGFCAPKKIPSFCYSPKDEGLCSANVTRYYFNPRYRTCDAFTYTGCGGNDNNFVSREDCKRACAK
modifications: tissue factor pathway inhibitor-2
Take B2: the “Localization of overexpressed protein” value in test [2] is “failed to demonstrate nuclear localization; also recorded: confined to the cytoplasm”. Besides, the “Internalization to cytosol and nucleus” value in test [1] (up to 30 minutes, immunoblot (FIG. 4A)) was “is not internalized as readily to either the cytosol or nucleus; also recorded: slowly internalized, but failed to be transported to the nucleus”.

B3: Alexa Fluor 488-conjugated TFPI-2: Recombinant TFPI-2 protein labeled with Alexa Fluor 488 dye (conjugate, UniProt P48307 23-235, looked up)
Tissue factor pathway …: DAAQEPTGNNAEICLLPLDYGPCRALLLRYYYDRYTQSCRQFLYGGCEGNANNFYTWEACDDACWRIEKVPKVCRLQVSVDDQCEGSTEKYFFNLSSMTCEKFFSGGCHRNRIENRFPDEATCMGFCAPKKIPSFCYSPKDEGLCSANVTRYYFNPRYRTCDAFTYTGCGGNDNNFVSREDCKRACAKALKKKKKMPKLRFASRIRKIRKKQF
modifications: Alexa Fluor 488 label
notes: Recombinant TFPI-2 protein labeled with Alexa Fluor 488 dye
For B3, the “Intracellular localization by confocal microscopy” value in test [3] (4° C., five minutes and 10 minutes (FIG. 1D)) was “limited punctate distribution of TFPI-2 in the cytosol”; in test [3] (4° C., two hour time point (FIG. 1D)), “significant cytosolic and nuclear-associated TFPI-2”; in test [3] (two-hour incubation at 37° C. (FIG. 1B)), “cytosolic and nuclear localization of TFPI-2; also recorded: uniform distribution of TFPI-2”.

B4: R24K KD1: Mutated first Kunitz-type domain of TFPI-2 (R24K), recombinant (protein)
chain: DAAQEPTGNNAEICLLPLDYGPCKALLLRYYYDRYTQSCRQFLYGGCEGNANNFYTWEACDDACWRIEKVPKV
modifications: left off: small tags and cut ends
notes: Mutated first Kunitz-type domain of TFPI-2 (R24K), recombinant
Turning to B4, the “Apoptosis induction potency relative to TFPI-2” value in test [4] was “more potent inducer of apoptosis than TFPI-2”. Also, the “Induction of caspase-mediated apoptosis” value in test [4] (several tumor cell lines, exogenously offered, Kempaiah and Kisiel 2008) is “induce caspase-mediated apoptosis”. Moreover, in test [1] (setting [5]), the “Internalization to cytosol and nucleus” value was “is not internalized to either the cytosol or nucleus; also recorded: failed to enter the cells”. In test [1] (48-hour incubation at 37° C.), the “Internalization by HT-1080 cells after 48-hour incubation” value is listed as “failed to be internalized”.

Source of the values: patent US8324344B2, “Membrane transduction peptides and methods of delivering material to a target cell” (STC.UNM, priority 2008, dated 2012).
